Assay results published in PMC4232046 (2014).

Target: Aspergillus fumigatus core CCAAT-binding complex (HapB(230–299), HapC(40–137), HapE(47–164)) (Aspergillus fumigatus)
Test: SPR

B1: Aspergillus fumigatus HapX(24–158) (domain or fragment)
chain: SPSPGPGTPGSITSKEWVIPPRPKPGRKPATDTPPTKRKAQNRAAQRAFRERRAARVNELEEQIKKIEDEHEIHIAAFKEQITNLSREVEQCRSEMTWWRDRCHALEKEVSVERSAKEAIVKEFRSSLSDREAVR
- Kd: 35 nM
